Target: cardiac troponin I (TPNI), mouse, endogenous (mouse (endogenous in heart), UniProt P48787 1-211)
Assay: cell-based or functional assay

Chain of cardiac troponin I (TPNI), mouse, endogenous (P48787 whole entry): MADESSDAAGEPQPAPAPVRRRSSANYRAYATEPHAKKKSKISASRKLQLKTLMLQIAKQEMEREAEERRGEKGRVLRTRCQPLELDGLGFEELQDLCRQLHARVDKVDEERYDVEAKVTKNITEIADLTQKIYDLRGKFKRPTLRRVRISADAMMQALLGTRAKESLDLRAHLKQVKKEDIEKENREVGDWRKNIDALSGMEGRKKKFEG

B1: PDE4D9, mouse, endogenous (enzyme, mouse (endogenous in heart), UniProt Q01063-2 1-678, looked up)
chain: MSIIMKPRSRSTSSLRTTEAVCFDVDNGTSAGRSPLDPMTSPGSGLILQANFVHSQRRESFLYRSDSDYDLSPKSMSRNSSIASDIHGDDLIVTPFAQVLASLRTVRNNFAALTNLQDRAPSKRSPMCNQPSINKATITEEAYQKLASETLEELDWCLDQLETLQTRHSVSEMASNKFKRMLNRELTHLSEMSRSGNQVSEYISNTFLDKQHEVEIPSPTQKEKEKKKRPMSQISGVKKLMHSSSLTNSCIPRFGVKTEQEDVLAKELEDVNKWGLHVFRIAELSGNRPLTVIMHTIFQERDLLKTFKIPVDTLITYLMTLEDHYHADVAYHNNIHAADVVQSTHVLLSTPALEAVFTDLEILAAIFASAIHDVDHPGVSNQFLINTNSELALMYNDSSVLENHHLAVGFKLLQEENCDIFQNLTKKQRQSLRKMVIDIVLATDMSKHMNLLADLKTMVETKKVTSSGVLLLDNYSDRIQVLQNMVHCADLSNPTKPLQLYRQWTDRIMEEFFRQGDRERERGMEISPMCDKHNASVEKSQVGFIDYIVHPLWETWADLVHPDAQDILDTLEDNREWYQSTIPQSPSPAPDDQEEGRQGQTEKFQFELTLEEDCESDTEKDSGSQVEEDTSCSDSKTLCTQDSESTEIPLDEQVEEEAVAEEESQPETCVPDDCCPDT
With B1 the “TPNI phosphorylation in TAC mice treated with scAAV9-P33 against scAAV9-SC” value was 2.8 fold.
